Measurements as given in patent US20220112295A1 (Novo Nordisk, published 2022).

Legend:
[1] = target: T1, native cynomolgus monkey CD30L on activated T cells (cynomolgus monkey, UniProt A0A7N9CVX7 1-234); assay: FACS, native cyno CD30L on activated cynomolgus T cells
T1 construct: whole, on cells; also called cynomologous CD30L
T1 sequence: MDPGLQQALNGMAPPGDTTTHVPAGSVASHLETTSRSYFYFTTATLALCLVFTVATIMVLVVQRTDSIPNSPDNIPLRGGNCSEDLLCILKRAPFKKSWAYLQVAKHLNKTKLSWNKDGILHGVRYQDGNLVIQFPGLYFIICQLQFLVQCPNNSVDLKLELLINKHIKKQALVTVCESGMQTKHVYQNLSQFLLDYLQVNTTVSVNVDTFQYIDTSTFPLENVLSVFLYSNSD
Protocol: The antibodies were rescreened for binding to native human and cynomologous monkey CD30L. Briefly, human Burkitt's lymphoma Ramos cells (3×10⁵/well) were incubated in round-bottomed 96-well microtiter plates (Costar® 96 well plate (Corning; Acton, Mass.) with a titration (10 μg/mL to 3.2 ng/mL final concentration) of anti-CD30L IgG antibodies in blocking buffer (PBS containing 0.02% sodium azide, 2% normal goat serum and 1% normal rabbit serum). Human […] fusion protein was included as a positive control for binding. Cells were incubated for 30 minutes at 4° C. then washed ×2 with PBS and incubated for a further 30 minutes at 4° C. with 30 μL/well of anti-hu IgG-biotin (1:50 in blocking buffer; Jackson Immunoresearch, West Grove, Pa.). After washing ×2 with PBS, cells were incubated for 30 minutes at 4° C. with 30 μL/well (1:50 dilution in PBS) of Streptavidin-Phycoerythrin (PE; Molecular Probes, Eugene, Oreg.). Cells were washed 2× with PBS and prepared for FACs analysis.
(§1) Cynomologous activated T cells were prepared by isolating peripheral blood mononuclear cells (PBMC) from heparinized cynomolgus monkey blood by density centrifugation over Isolymph (2000 rpm. for 20 minutes). PBMC were resuspended in 25 mLs of PBS, added to 300 μl of a 50% solution of 2-Aminoethylisothiouronium bromide (AET)-treated sheep erythrocytes and centrifuged at […] at 4° C. for 10 minutes. Pelleted cells were incubated at 4° C. for a further 20 minutes, gently resuspended and centrifuged over Isolymph. Supernatant was removed down to the T cell/erythrocyte pellet. The pellet was then resuspended in 25 mL of lyses buffer (0.85% ammonium chloride in water) and incubated at 37° C. for 10 minutes. The resultant T cells were pelleted and washed x2 in culture medium (RPMI-1640 medium +10% heat-inactivated fetal bovine serum) and then cultured ([…]) at 37° C. for 18 hr in the presence of 10 ng/mL Phorbol Myristate Acetate (PMA; Sigma Chemicals, St Louis, Mo.) and 500 ng/mL lonornycin (Calbiochem, San Francisco, Calif.). At the end of the culture period, cynomolgus T cells were counted and washed 1× with PBS and incubated with 2% Goat serum, 1% Rabbit serum and 0.1% Human serum in PBS for 30 minutes at […]. Cells were then stained with anti-huCD30L antibodies as described above for human Ramos cells.

[2] = target: T1, native cynomolgus monkey CD30L on …; assay: FACS, antibody at 50 ug/mL, inhibition of huCD30.Fc-His binding to activated cynomolgus T cells
Protocol: as §1
The antibodies were also screened for ability to block binding of human CD30L to a soluble human CD30. c molecule. Briefly, human Ramos cells or activated cynomolgus monkey T cells were incubated with anti-CD30L IgGs at 50 μg/mL in blocking buffer for 30 minutes at 4° C. Soluble huCD30. Fc-His was then added at a final concentration of 2.5 ug/mL (30 μL/well) and incubated for 30 minutes at 4° C. Cells were washed ×2 with PBS and incubated with 5 μg/mL of a mouse anti-His monoclonal antibody (30μL/well in blocking buffer) and incubated for 30 minutes at 4° C. After washing ×2 with PBS, cells were incubated with anti-mouse IgG-PE (1:50 in PBS; BD Pharmingen, San Diego, Calif.) for a further 30 minutes at […]. Cells were then washed ×2 with PBS and prepared for FACs analysis.

cyno CD30L LZ = target: T2, cyno CD30L LZ (cynomolgus monkey, UniProt A0A7N9CVX7 63-234); assay: cell-based or functional assay
T2 sequence: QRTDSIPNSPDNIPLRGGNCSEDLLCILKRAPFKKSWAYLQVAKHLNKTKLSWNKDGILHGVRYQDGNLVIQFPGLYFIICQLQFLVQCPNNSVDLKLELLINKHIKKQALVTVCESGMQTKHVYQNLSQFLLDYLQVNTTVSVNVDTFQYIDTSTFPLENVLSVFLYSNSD

[3] = target: T3, native human CD30L expressed on Ramos cells (human, UniProt P32971 1-234); assay: cell-based or functional assay
T3 sequence: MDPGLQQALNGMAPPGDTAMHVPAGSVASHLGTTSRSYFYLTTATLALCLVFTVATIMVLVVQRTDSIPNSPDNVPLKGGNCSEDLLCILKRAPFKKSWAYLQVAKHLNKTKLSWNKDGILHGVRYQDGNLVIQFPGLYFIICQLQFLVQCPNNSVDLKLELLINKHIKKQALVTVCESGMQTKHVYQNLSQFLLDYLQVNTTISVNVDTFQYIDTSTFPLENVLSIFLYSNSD

mouse CD30L = target: T4, mouse CD30L (mouse, UniProt P32972 68-239, limits assumed); assay: not described
T4 construct: The form tested is not described
T4 sequence (looked up): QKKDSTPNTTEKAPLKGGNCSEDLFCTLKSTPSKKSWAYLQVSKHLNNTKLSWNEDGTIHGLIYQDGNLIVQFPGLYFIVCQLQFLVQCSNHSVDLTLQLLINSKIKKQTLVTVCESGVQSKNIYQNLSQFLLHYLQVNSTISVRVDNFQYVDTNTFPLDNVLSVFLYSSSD

| Binder | EC50 [1] [nM] | % inhibition [2] [%] | IC50, inhibition of IL-8 release (K299 single cell assay with cyno CD30L LZ) (cyno CD30L LZ) [nM] | IC50, inhibition of IL-8 release (K299/Ramos dual cell assay) [3] [nM] | binding result (mouse CD30L) |
| --- | --- | --- | --- | --- | --- |
| Antibody A (antibody, V domains shown, Human antibody (XenoMouse); also called mAb A; anti-hCD30L A) VH: QVQLQESGPGLVKPSETLSLTCTVSGGSISSYIWSWIRQPAGKGLEWIGRIYASGNTNYNPSLKSRVTMSVDTSKNQFSLKLSSMTAADTAVYYCARDYRVAGTYYYYYGLDVWGQGTTVTVSS VL: QSALTQPASVSGSPGQSITISCTGTSSDVGVYDYVSWYQQHPGKAPKLMIYEVSNRPSGVSNRFSGSKSGNTASLTISGLQTEDEADYYCSSYTSRSTWVFGGGTKLTVL | 2.2 | 77 | 2 | 0.028 | no binding |
| Antibody F (antibody, V domains shown, also called mAb F) VH: QVQLQESGPGLVKPSETLSLTCTVSGGSISSYYWSWIRQPAGKGLEWIGRIFASGSTNYNPSLRSRVTMSRDTSKNQFSLKLSSVTAADTAVYYCAKERVGVQDYYHYSGMDVWGQGTTVTVSS VL: QSALTQPASVSGSPGQSITISCTGTSSDVGLYNYVSWYQQQPGKAPKLMIYEVSKRPSGVSNRFSGSTSGNTASLTISGLQADDEADYSCSSYTSSSTWVFGGGTKLTVL | 2.9 | 97 | 5.5 | 0.06 | no binding |
| Antibody B (antibody, V domains shown, also called mAb B) VH: QVQLQESGPGLVKPSETLSLTCTVSGGSISSYYWTWIRQPAGKGLEWIGRIYTSGITNYNPSLKSRVTMSVDTSKNQFSLKLSSVTAADTAVYYCARERVVGASRYYYYGVDVWGQGTTVTVSS VL: QSALTQPASVSGSPGQSITISCTGTSSDVGLYNYVSWYQQHPDKAPKLMIFEVNNRPSGVSNRFSGSNSGNTASLTISGLQAEDEADYYCSSYTSSSTWVFGGGTKLTVL | 4 | 88 | 5.6 | 0.072 | no binding |
| Antibody D (antibody, V domains shown, also called mAb D) VH: QVQLQESGPGLVKPSETLSLTCTVSGGSISSYSWSWIRQPAGKGLEWIGRTSTSGRNNYNPSLKSRVTMSVDTSKNQFSLKLNSVTAADTAVYYCARDFTIAARRYYYYGMDVWGQGTTVTVSS VL: QSALTQPASVSGSPGQSITISCTGTSSDIGLYNYVSWYQQHPGKAPKLIIYEVINRPSGVSNRFSGSESGNTASLTISGLQAEDEANYYCSSYTSSSTWVFGGGTKLTVL | 2.7 | 84 | 5.4 | 0.062 | no binding |
| Antibody C (antibody, V domains shown, also called mAb C) VH: QVQLQESGPGLVKPSETLSLTCTVSGGSISSYYWTWIRQPAGKGLEWIGRIYTSGITNYNPSLKSRVTMSVDTSKNQFSLKLSSVTAADTAVYYCARERVVGASRYYYYGVDVWGQGTTVTVSS VL: QSALTQPASVSGSPGQSITISCTGTSSDIGLYDYVSWYQQHPDRAPKLIIFEVNNRPSGVSYRFSGSNSGNTASLTISGLQAEDEADYYCSSYTSSSTWVFGGGTKLTVL | 1 | 83 | 3.9 | 0.036 | no binding |
| Antibody E (antibody, V domains shown, also called mAb E) VH: QVQLQESGPRLVKPSETLSLTCTVSGGSITNNYWSWIRQPAGKGLEWIGRVYSSGLTNYKPSLKSRVTMSVDTSKNQFSLRLNSVTAADTAVYYCARERATVTTRYHYDGMDVWGQGTSVTVSS VL: QSALTQPASVSGSPGQSITISCTGSSSDIGTYNYVSWYQQYPGKAPELMIYEVNNRPSGVSDRFSGSTSGNTASLTISGLQANDEADYYCSSYSSSSTWVFGGGTKLTVL | 2.7 | 87 | 5.4 | 0.045 | no binding |
